Earlier results, collected in article PMC4077824, “Conserved Prosegment Residues Stabilize a Late-Stage Folding Transition State of Pepsin Independently of Ground States” (PLoS ONE, 2014).

Tested on: αLP
Description: General thermodynamic and kinetic features of protein folding are known, such as that the natively folded conformation of a protein is thermodynamically stabilized and that there is a relationship between topology and folding rate, which holds for both two-state and multi-state folding proteins, [3]. […] In the case of pepsin, Rp was characterized by a ΔG unf of 5.8 kcal/mol, a 10% increase in unordered secondary structure and identical tertiary structure to Np (both yield R g ∼20 Å).

B1: αLP: serine peptidase αLP (alpha-lytic protease) (protein, UniProt P00778 200-397, looked up)
Alpha-lytic protease: ANIVGGIEYSINNASLCSVGFSVTRGATKGFVTAGHCGTVNATARIGGAVVGTFAARVFPGNDRAWVSLTSAQTLLPRVANGSSFVTVRGSTEAAVGAAVCRSGRTTGYQCGTITAKNVTANYAEGAVRGLTQGNACMGRGDSGGSWITSAGQAQGVMSGGNVQSNGNNCGIPASQRSSLFERLQPILSQYGLSLVTG
Native state relative to an intermediate state, ref [8]
  ΔG N-I: -4 kcal/mol
αLP intermediate more stable than native state, ref [4]
  stability of intermediate over native state: 4 kcal/mol
αLP intermediate, ref [4]
  ΔG unf: 1 kcal/mol
